The supplement of paper PMC11246515
± gives the standard deviation of the averaged measurements.

Assay: total protein half-life in vivo (active degradation + dilution); higher = more stable protein
[1] = E. coli NCM3722 delta-clpP delta-lon delta-hslV, growth: N-lim chemostat, doubling time 6 h
[2] = E. coli NCM3722 delta-clpP, growth: N-lim chemostat, doubling time 6 h
[3] = E. coli NCM3722 delta-smpB, growth: N-lim chemostat, doubling time 6 h
[4] = wild type E. coli NCM3722, growth: C-lim chemostat, doubling time 3 h
[5] = wild type E. coli NCM3722, growth: C-lim chemostat, doubling time 6 h
[6] = wild type E. coli NCM3722, growth: C-lim chemostat, doubling time 12 h
[7] = wild type E. coli NCM3722, growth: N-lim chemostat, doubling time 6 h
[8] = wild type E. coli NCM3722, growth: N-lim chemostat, doubling time 12 h
[9] = wild type E. coli NCM3722, growth: P-lim chemostat, doubling time 6 h
[10] = wild type E. coli NCM3722, growth: P-lim chemostat, doubling time 12 h
[11] = E. coli NCM3722 delta-hslV, growth: N-lim chemostat, doubling time 6 h
[12] = E. coli NCM3722 delta-lon, growth: N-lim chemostat, doubling time 6 h

P0AFC7, sequence (chain, as listed by the source): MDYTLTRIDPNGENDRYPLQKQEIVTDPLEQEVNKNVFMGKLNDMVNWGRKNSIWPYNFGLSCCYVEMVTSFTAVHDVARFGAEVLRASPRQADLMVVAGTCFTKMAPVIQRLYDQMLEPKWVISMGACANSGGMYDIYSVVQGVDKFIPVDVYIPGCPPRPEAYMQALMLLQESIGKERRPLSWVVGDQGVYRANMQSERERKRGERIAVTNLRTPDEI

Substance	total protein half-life in vivo [1] [h]	total protein half-life in vivo [2] [h]	total protein half-life in vivo [3] [h]	total protein half-life in vivo [4] [h]	total protein half-life in vivo [5] [h]	total protein half-life in vivo [6] [h]	total protein half-life in vivo [7] [h]	total protein half-life in vivo [8] [h]	total protein half-life in vivo [9] [h]	total protein half-life in vivo [10] [h]	total protein half-life in vivo [11] [h]	total protein half-life in vivo [12] [h]
MVTLYGIKNCDTIKKARRWLEANNIDYRFHDYRVDGLDSELLNDFINELGWEALLNTRGTTWRKLDETTRNKITDAASAAALMTEMPAIIKRPLLCVPGKPMLLGFSDSSYQQFFHEV	5.94 ± 0.23	5.95 ± 0.25	5.87 ± 1.3	3.07 ± 0.16	6.1 ± 0.65	9.79 ± 1.3	> 8	8.47	6.07	11.3 ± 0.18		
MVWLANPERYGQMQYRYCGKSGLRLPALSLGLWHNFGHVNALESQRAILRKAFDLGITHFDLANNYGPPPGSAEENFGRLLREDFAAYRDELIISTKAGYDMWPGPYGSGGSRKYLLASLDQSLKRMGLEYVDIFYSHRVDENTPMEETASALAHAVQSGKALYVGISSYSPERTQKMVELLREWKIPLLIHQPSYNLLNRWVDKSGLLDTLQNNGVGCIAFTPLAQGLLTGKYLNGIPQDSRMHREGNKVRGLTPKMLTEANLNSLRLLNEMAQQRGQSMAQMALSWLLKDDRVTSVLIGASRAEQLEENVQALNNLTFSTKELAQIDQHIADGELNLWQASSDK	5.44 ± 0.59	5.3 ± 0.24	4.18 ± 0.68	3.2 ± 0.16	6.28 ± 0.24	11.4 ± 1.3	5.12 ± 0.82	8.176 ± 0.024	6.24 ± 0.32	12.4 ± 1.1	4.93 ± 0.43	5.69 ± 0.77
MYAAKGTQAYAQIGVESAVMSASQQQLVTMLFDGVLSALVRASLFMQDNNQQGKGVSLSKAINIIENGLRVSLDEESKDELTQNLIALYSYMVRRLLQANLRNDVSAVEEVEALMRNIADAWKESLLSPSLIQDPV				0.207 ± 0.029								
MYDFNLVLLLLQQMCVFLVIAWLMSKTPLFIPLMQVTVRLPHKFLCYIVFSIFCIMGTWFGLHIDDSIANTRAIGAVMGGLLGGPVVGGLVGLTGGLHRYSMGGMTALSCMISTIVEGLLGGLVHSILIRRGRTDKVFNPITAGAVTFVAEMVQMLIILAIARPYEDAVRLVSNIAAPMMVTNTVGAALFMRILLDKRAMFEKYTSAFSATALKVAASTEGILRQGFNEVNSMKVAQVLYQELDIGAVAITDREKLLAFTGIGDDHHLPGKPISSTYTLKAIETGEVVYADGNEVPYRCSLHPQCKLGSTLVIPLRGENQRVMGTIKLYEAKNRLFSSINRTLGEGIAQLLSAQILAGQYERQKAMLTQSEIKLLHAQVNPHFLFNALNTIKAVIRRDSEQASQLVQYLSTFFRKNLKRPSEFVTLADEIEHVNAYLQIEKARFQSRLQVNIAIPQELSQQQLPAFTLQPIVENAIKHGTSQLLDTGRVAISARREGQHLMLEIEDNAGLYQPVTNASGLGMNLVDKRLRERFGDDYGISVACEPDSYTRITLRLPWRDEA [P0AD14]				2.82 ± 0.28	5.37 ± 0.45	10.9 ± 0.79			6.05 ± 0.33	11.1 ± 1.1		
MYDNLKSLGITNPEEIDRYSLRQEANNDILKIYFQKDKGEFFAKSVKFKYPRQRKTVVADGVGQGYKEVQEISPNLRYIIDELDQICQRDRSEVDLKRKILDDLRHLESVVTNKISEIEADLEKLTRK		4.32 ± 0.1	3.61 ± 0.31	3.26 ± 0.19	5.55 ± 0.13	8.4 ± 0.45	3.77 ± 0.094	6.16 ± 0.23	5.45 ± 1.6	12 ± 0.17	4.18 ± 0.52	4.82 ± 0.08
MYEALLVVFLIVAIGLVGLIMLQQGKGADMGASFGAGASATLFGSSGSGNFMTRMTALLATLFFIISLVLGNINSNKTNKGSEWENLSAPAKTEQTQPAAPAKPTSDIPN [P0AG99]	3.64 ± 0.31	3.46 ± 0.55	3.78 ± 0.13	2.33 ± 0.097	4.91 ± 1.3	6.22 ± 0.14	3.81 ± 0.04	4.95	3.41 ± 0.17	6.12 ± 0.75	3.996 ± 0.032	4.58 ± 0.069
MYEFDWSSIVPSLPYLLDGLVITLKITVTAVVIGILWGTMLAVMRLSSFAPVAWFAKAYVNVFRSIPLVMVLLWFYLIVPGFLQNVLGLSPKNDIRLISAMVAFSMFEAAYYSEIIRAGIQSISRGQSSAALALGMTHWQSMKLIILPQAFRAMVPLLLTQGIVLFQDTSLVYVLSLADFFRTASTIGERDGTQVEMILFAGFVYFVISLSASLLVSYLKRRTA [P0AER5]	7.04	5.18	5.15 ± 0.1		6.05 ± 0.51	12.6 ± 1.8	5.68 ± 0.1	9.5 ± 4.4	6.36 ± 0.33	11.4 ± 0.52	6.35	5.47
MYFLNDLNFSRRDAGFKARKDALDIASDYENISVVNIPLWGGVVQRIISSVKLSTFLCGLENKDVLIFNFPMAKPFWHILSFFHRLLKFRIVPLIHDIDELRGGGGSDSVRLATCDMVISHNPQMTKYLSKYMSQDKIKDIKIFDYLVSSDVEHRDVTDKQRGVIYAGNLSRHKCSFIYTEGCDFTLFGVNYENKDNPKYLGSFDAQSPEKINLPGMQFGLIWDGDSVETCSGAFGDYLKFNNPHKTSLYLSMELPVFIWDKAALADFIVDNRIGYAVGSIKEMQEIVDSMTIETYKQISENTKIISQKIRTGSYFRDVLEEVIDDLKTR	6.47	7.29	4.15 ± 0.31									5.02 ± 0.14
MYLRPDEVARVLEKVGFTVDVVTQKAYGYRRGENYVYVNREARMGRTALVIHPTLKERSSTLAEPASDIKTCDHYQQFPLYLAGERHEHYGIPHGFSSRVALERYLNGLFGEAS [P0AD53]	4.77 ± 0.34	1.5	0.698 ± 0.21	1.18 ± 0.14	1.81 ± 0.54	1.42	0.609 ± 0.47	1.14	1.03 ± 0.22	2.61	0.818	2.99 ± 0.41
MYQDLIRNELNEAAETLANFLKDDANIHAIQRAAVLLADSFKAGGKVLSCGNGGSHCDAMHFAEELTGRYRENRPGYPAIAISDVSHISCVGNDFGFNDIFSRYVEAVGREGDVLLGISTSGNSANVIKAIAAAREKGMKVITLTGKDGGKMAGTADIEIRVPHFGYADRIQEIHIKVIHILIQLIEKEMVK	4.5 ± 0.5	4.44 ± 0.26	4.26 ± 0.082	3.04 ± 0.14	5.89 ± 0.46	11 ± 0.45	4.37 ± 0.08	7.07 ± 0.52	5.73 ± 0.15	11.13 ± 0.11	4.63 ± 0.36	5.19 ± 0.35
MYRIGELAKMAEVTPDTIRYYEKQQMMEHEVRTEGGFRLYTESDLQRLKFIRHARQLGFSLESIRELLSIRIDPEHHTCQESKGIVQERLQEVEARIAELQSMQRSLQRLNDACCGTAHSSVYCSILEALEQGASGVKSGC [P0ACS5]	4.46 ± 0.81		0.555 ± 0.043		0.866	1	0.748 ± 0.26					2.16
MYTKIIGTGSYLPEQVRTNADLEKMVDTSDEWIVTRTGIRERHIAAPNETVSTMGFEAATRAIEMAGIEKDQIGLIVVATTSATHAFPSAACQIQSMLGIKGCPAFDVAAACAGFTYALSVADQYVKSGAVKYALVVGSDVLARTCDPTDRGTIIIFGDGAGAAVLAASEEPGIISTHLHADGSYGELLTLPNADRVNPENSIHLTMAGNEVFKVAVTELAHIVDETLAANNLDRSQLDWLVPHQANLRIISATAKKLGMSMDNVVVTLDRHGNTSAASVPCALDEAVRDGRIKPGQLVLLEAFGGGFTWGSALVRF [P0A6R0]	5.01 ± 0.12	4.93 ± 0.2	4.564 ± 0.018	2.89 ± 0.036	5.36 ± 0.51	9.94 ± 0.71	4.91 ± 0.27	9.3 ± 1	5.907 ± 0.0094	12.9 ± 1.5	4.91 ± 0.11	5.578 ± 0.021
MYTQTLYELSQEAERLLQLSRQQLQLLEKMPLSVPGDDAPQLALPWSQPNIAERHAMLNNELRKISRLEMVLAIVGTMKAGKSTTINAIVGTEVLPNRNRPMTALPTLIRHTPGQKEPVLHFSHVAPIDCLIQQLQQRLRDCDIKHLTDVLEIDKDMRALMQRIENGVAFEKYYLGAQPIFHCLKSLNDLVRLAKALDVDFPFSAYAAIEHIPVIEVEFVHLAGLESYPGQLTLLDTPGPNEAGQPHLQKMLNQQLARASAVLAVLDYTQLKSISDEEVREAILAVGQSVPLYVLVNKFDQQDRNSDDADQVRALISGTLMKGCITPQQIFPVSSMWGYLANRARYELANNGKLPPPEQQRWVEDFAHAALGRRWRHADLADLEHIRHAADQLWEDSLFAQPIQALLHAAYANASLYALRSAAHKLLNYAQQAREYLDFRAHGLNVACEQLRQNIHQIEESLQLLQLNQAQVSGEIKHEIELALTSANHFLRQQQDALKVQLAALFQDDSEPLSEIRTRCETLLQTAQNTISRDFTLRFAELESTLCRVLTDVIRPIEQQVKMELSESGFRPGFHFPVFHGVVPHFNTRQLFSEVISRQEATDEQSTRLGVVRETFSRWLNQPDWGRGNEKSPTETVDYSVLQRALSAEVDLYCQQMAKVLAEQVDESVTAGMNTFFAEFASCLTELQTRLRESLALRQQNESVVRLMQQQLQQTVMTHGWIYTDAQLLRDDIQTLFTAERY [P0DM85]				2.44 ± 0.21		5.52 ± 1.4			3.43 ± 0.63	6.3 ± 0.69		
MYTSGYAHRSSSFSSAASKIARVSTENTTAGLISEVVYREDQPMMTQLLLLPLLQQLGQQSRWQLWLTPQQKLSREWVQASGLPLTKVMQISQLSPCHTVESMVRALRTGNYSVVIGWLADDLTEEEHAELVDAANEGNAMGFIMRPVSASSHATRQLSGLKIHSNLYH [P0AFZ5]	5.07 ± 0.91											0.671 ± 0.059
P0AAG3	6.26 ± 0.74	6.4 ± 1.1	5.56 ± 0.4	3.02 ± 0.25	6.06 ± 0.07	11.3 ± 0.26	5.82 ± 0.16	11.6 ± 0.28	5.56 ± 0.15	11.4 ± 1.6	6.83 ± 1.4	6.053 ± 0.0072
P0ADE2	1.56				0.174				0.104	0.888 ± 0.58		
P0AFC7	6.19 ± 0.65	5.993 ± 0.019	5.87 ± 0.17	2.92 ± 0.093	5.98 ± 0.26	11.2 ± 1.5	6.54 ± 0.77	12.5 ± 0.86	5.59 ± 0.15	12.5 ± 0.61	6.34 ± 0.17	5.81 ± 1.1
P76347	6.25 ± 0.88	1.86						3.04				
P76578	6.589 ± 0.03		6.09 ± 0.11	3.08 ± 0.13	6.17 ± 0.39	13.4 ± 0.82	6.17 ± 0.06	13.1 ± 0.32	6.16 ± 0.085	12.7 ± 0.14	6.54 ± 0.12	6.81 ± 0.67
